Measurements from patent publication US20100098706A1 (LFB BIOTECHNOLOGIES, published 2010).

How the values were obtained:
[1] = molecular target: T1, human CD16 receptor (FcgammaRIIIa) (human, UniProt P08637 17-254); experiment: cell-based or functional assay
[2] = molecular target: T1, human CD16 receptor (FcgammaRIIIa); experiment: cell-based or functional assay; remark: listed apart in the source
[3] = molecular target: T2, human LDL (Low Density Lipoprotein) receptor (human, UniProt P01130 22-860); experiment: binding to melanoma cell lines; method not described
T2 construct: whole, on cells; no recombinant LDL-R was tested; also called LDL-R; human LDL-R

[4] = molecular target: T1, human CD16 receptor (FcgammaRIIIa); experiment: flow cytometry on NK cells; competition with 3G8-PE; antibody at 50 µg/ml; reference Rituxan®
Protocol: The binding to the CD16 receptor is evaluated by a murine anti-CD16 antibody (3G8) competition test.
The effector cells (NK cells) are purified by the negative depletion kit (NK Cell Isolation Kit, Myltenyi, Paris, France), starting with peripheral blood from healthy donors. Then, the NK cells are incubated with variable concentrations (0, 10 and 50 μg/ml) of antibodies to be evaluated and the anti-CD16 antibody (3G8) coupled to a fluorochrome (3G8-PE) at a fixed concentration.
After washing, the binding of the 3G8-PE to the CD16 receptor of the NK cells is evaluated by flow cytometry.

T1 sequence (P08637 17-254): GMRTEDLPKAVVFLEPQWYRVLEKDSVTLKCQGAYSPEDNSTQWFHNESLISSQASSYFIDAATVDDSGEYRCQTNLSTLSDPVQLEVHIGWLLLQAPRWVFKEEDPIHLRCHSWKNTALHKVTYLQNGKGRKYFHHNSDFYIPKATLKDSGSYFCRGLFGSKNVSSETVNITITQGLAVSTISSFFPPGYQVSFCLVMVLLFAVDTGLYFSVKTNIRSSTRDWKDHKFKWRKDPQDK
T2 sequence (P01130 22-860): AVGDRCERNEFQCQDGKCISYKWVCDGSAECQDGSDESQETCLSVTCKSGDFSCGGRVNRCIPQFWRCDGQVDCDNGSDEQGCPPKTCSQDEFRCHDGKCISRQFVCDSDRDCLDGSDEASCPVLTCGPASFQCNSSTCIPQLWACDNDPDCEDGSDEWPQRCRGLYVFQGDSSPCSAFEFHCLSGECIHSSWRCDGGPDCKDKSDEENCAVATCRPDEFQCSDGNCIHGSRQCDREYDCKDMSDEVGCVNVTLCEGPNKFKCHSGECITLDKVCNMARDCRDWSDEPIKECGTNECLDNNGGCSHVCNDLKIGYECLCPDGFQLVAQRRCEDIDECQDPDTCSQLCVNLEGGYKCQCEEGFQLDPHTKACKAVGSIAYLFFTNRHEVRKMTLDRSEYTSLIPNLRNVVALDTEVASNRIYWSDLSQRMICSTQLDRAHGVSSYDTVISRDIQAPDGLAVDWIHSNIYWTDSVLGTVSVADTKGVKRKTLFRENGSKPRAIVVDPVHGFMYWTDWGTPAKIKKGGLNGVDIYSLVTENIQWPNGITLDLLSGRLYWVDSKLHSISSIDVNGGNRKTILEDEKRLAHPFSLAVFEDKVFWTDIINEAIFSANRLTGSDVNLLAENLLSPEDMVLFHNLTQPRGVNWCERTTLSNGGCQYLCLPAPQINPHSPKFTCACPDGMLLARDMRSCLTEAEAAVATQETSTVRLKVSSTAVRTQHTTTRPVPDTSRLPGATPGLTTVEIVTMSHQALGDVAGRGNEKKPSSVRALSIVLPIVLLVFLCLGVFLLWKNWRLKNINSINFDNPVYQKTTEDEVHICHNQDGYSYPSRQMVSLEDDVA

B1: anti-LDL-R chimeric antibody EMAB604 (antibody, human IgG1, kappa)
heavy: not shown
light: DVLMTQTPLSLPVSLGDQASISCRSSQSILHSSGIAYLEWYLQKPGQSPKLLIYKVSNRFSGVPDRFSGSGSGTDFTLKISRVEAEDLGVYYCFQGSHVPWTFGGGTKLEIKRTVAAPSVFIFPPSDEQLKSGTASVVCLLNNFYPREAKVQWKVDNALQSGNSQESVTEQDSKDSTYSLSSTLTLSKADYEKHKVYACEVTHQGLSSPVTKSFNRGEC
notes: The cloned V fragments contain the natural signal peptide of C7; also called anti-LDL-R (EMAB604); chimeric antibody C7
ADCC EC50, GUY 17.2 target cells, NK effector cells [1]: 0.45 µg/mL
ADCC EC50, HT-144 target cells, NK effector cells [2]: 0.45 µg/mL
binding result [3]: binds
fold binding against Rituxan® [4]: ~3 fold
